The series relates to T1, MprA(D51E) D51E (Corynebacterium glutamicum ATCC 13032), ORF:c49de587.
T1 sequence: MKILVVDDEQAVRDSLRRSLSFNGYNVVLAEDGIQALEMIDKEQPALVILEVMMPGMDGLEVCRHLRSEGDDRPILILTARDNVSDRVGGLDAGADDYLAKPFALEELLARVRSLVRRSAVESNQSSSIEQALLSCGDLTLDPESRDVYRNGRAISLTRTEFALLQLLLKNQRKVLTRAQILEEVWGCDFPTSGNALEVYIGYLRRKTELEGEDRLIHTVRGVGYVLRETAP
Kind of series: EMSA. Conditions: Buffer P: 50 mM Tris-HCl pH 7.5, 50 mM KCl, 10 mM MgCl2, 0.5 mM EDTA, 10% glycerol; 30 min at 20 C; DNA 25-107 nM, protein 0-64-fold molar excess; 6% native …. (In general: Mobility shift assays separate free from complexed probe on a gel.)

As to “CGATACCCTTTTCGTCTTCCAGTCCGTGACAGACTTCCTCCCAATTAAGACGTCCACGCGTTGGAACATATTTCACTTATGCTAACACCTCTTAAGCATAAAGAAGCCAGTTACCTCCTCATTTTAAGAGAAGATAACTGGCTCTTGTTAAATTCTTACCTACAAAAGGTTGTAGGCGATGAATTTAAGGTTTAGAACTGCTCTACGTCCACGAGACCGAGCTGTGCTGCCTTAACCAGACGGCGTGGGATGCGAACGGTCTGACCGTCGATCTTGACCTCCTGAAGGGCGACATTGTCG (double strand) [mprA promoter]”, the binding result was “binds”.

The record behind these values is publication PMC12113857.
